116 sequences from the supplement of paper PMC10724198 can be followed below.

± gives the standard deviation of the averaged measurements.
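Note: PSI is a weighted mean of sequencing reads over stability bins, variants kept only with over 10 reads, mCherry proximal and sfGFP distal, peptide attached via GGGS linker.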

For this data set, the system named is Saccharomyces cerevisiae. Nature of the data set: protein stability index of tFT-peptide fusion (C-terminal peptide) (PSI (0-1 scale)); higher = more stable (slower turnover). The conditions noted are these: genetic background: wild type; temperature: 30 C.
SPPPARLLPPPS: the protein stability index is 0.723 ± 0.12.
As for SPPPLPHPPAAS, the protein stability index was 0.698 ± 0.023.
In the case of SPPPLPPPPPSP it was 0.68 ± 0.036.
As to SPPPPLTSLVPP, the protein stability index worked out at 0.688 ± 0.075.
In the case of SPPPPPLPPAYL it was 0.681 ± 0.012.
As for SPPPPPLPPPHP, the protein stability index turned out to be 0.6564 ± 0.0035.
In the case of SPPPPQEADYVV it was 0.62 ± 0.026; in that of SPPPPRAPTPPP, 0.698 ± 0.035; in that of SPPPPSRPTLPP, 0.593 ± 0.011.
Next, SPPPRSPRPFPG: 0.6757 ± 0.0012.
Next, SPPPSPAPPPPP: 0.684 ± 0.083; SPPPSSSPPPSP: 0.612 ± 0.03; SPPPTPPGLLLL: 0.694 ± 0.012.
SPPPTSQHSGPP registered a protein stability index of 0.657 ± 0.042.
In the case of SPPRATVRPTSP it was 0.824 ± 0.078; in that of SPPRPSSPRASP, 0.664 ± 0.074.
Next, SPPSFLPLPLPS: 0.675 ± 0.033; SPPSHPHRPTFP: 0.753 ± 0.28; SPPSPLSLPLPS: 0.707 ± 0.014.
In the case of SPPTEPFPDPTH it was 0.6628 ± 0.0053; in that of SPQRAHLHHHPT, 0.654 ± 0.026; in that of SPRISSCSPFDS, 0.726 ± 0.036.
For the sequence SPRPSVLPPLSL, the protein stability index was found to be 0.734 ± 0.011.
Take SPRVKEVSREIR: the protein stability index was 0.689 ± 0.045.
In turn, SPRVSRRVLPSF showed a protein stability index of 0.6696 ± 0.0027.
SPRYLLFSLRSP showed a protein stability index of 0.714 ± 0.11.
Next, SPSFPPHRPPQH: 0.724 ± 0.066; SPSHSVSGPLSF: 0.648 ± 0.014.
Next, SPSLPQLLDPPS: 0.711 ± 0.011; SPSLSFVFPVSL: 0.756 ± 0.039; SPSPHPQPLIPL: 0.681 ± 0.03.
In the case of SPSPPLPFSRPP it was 0.686 ± 0.044; in that of SPSPPPASPPAP, 0.654 ± 0.14.
Consider SPSRHPSPPKPP, for which the protein stability index stood at 0.607 ± 0.021.
In the case of SPSSSPLSPFPL it was 0.713 ± 0.084; in that of SPSTSPPPSSSS, 0.697 ± 0.042; in that of SPSYACLPPPIP, 0.7461 ± 0.0032.
In the case of SPTPLDPLRAPL it was 0.6902 ± 0.0027; in that of SPTPPPPPPRPP, 0.581 ± 0.018; in that of SPVPLPPPLPSL, 0.664 ± 0.023.
In the case of SPVPVTFSLLTR it was 0.698 ± 0.0082.
Turning to SPVRLSSVPRPY, the protein stability index is 0.683 ± 0.019.
In the case of SPWLSSRFRVPR it was 0.686 ± 0.021.
As for SPWMSKNGQSSD, the protein stability index was found to be 0.622 ± 0.02.
Next, SPWWAPPSPPYP: 0.582 ± 0.015; SQAFPPADLRPR: 0.719 ± 0.058.
For the sequence SQLKHLPPDREC, the protein stability index worked out at 0.679 ± 0.016.
Next, SQMMLKQKFLRR: 0.628 ± 0.024; SRACTRRSHTLE: 0.681 ± 0.032.
SRAIEPSEFSVA showed a protein stability index of 0.715 ± 0.055.
For the sequence SRARPPLLPFPP, the protein stability index stood at 0.615 ± 0.061.
Next, SRASTGPPPPGT: 0.692 ± 0.026; SRCGSFRICFGT: 0.638 ± 0.013.
On to SRFLPPSHLLPP, for which the protein stability index was determined as 0.738 ± 0.093.
In the case of SRFVRNRYGRVV it was 0.648 ± 0.027; in that of SRGRAGESRPRG, 0.712 ± 0.069; in that of SRGSSGHLVNLV, 0.607 ± 0.049.
Next, SRGVLLCHCSIA: 0.758 ± 0.12; SRKCLPPLQLWS: 0.759 ± 0.067.
In the case of SRLLPPLPPLSP it was 0.767 ± 0.097.
SRNKLNSIIIEK displayed a protein stability index of 0.608 ± 0.046.
Next, SRPLPLPPRPLP: 0.647 ± 0.023; SRPLPPSLPPPP: 0.756 ± 0.0098.
The sequence SRPLQPLHQPKY yielded a protein stability index of 0.681 ± 0.052.
In the case of SRPPAPPPLPAP it was 0.726 ± 0.025; in that of SRPPPPSIYLSI, 0.6912 ± 0.0021.
In the case of SRPRSPPPPPIT it was 0.819 ± 0.054; in that of SRPTSGPPQPPL, 0.707 ± 0.022.
Next, SRPVSSFPPPLR: 0.664 ± 0.071; SRQDLPKYVYLY: 0.508 ± 0.016.
On to SRRENEVIGGAE, for which the protein stability index was 0.725 ± 0.068.
In the case of SRRGARRHVRLK it was 0.6757 ± 0.00074; in that of SRRGFTHDGLKD, 0.645 ± 0.032; in that of SRRLQSPVRVVT, 0.773 ± 0.15.
In the case of SRRRSPARPSLP it was 0.7462 ± 0.0045.
Next, SRRRVTSCTARG: 0.729 ± 0.018; SRRSCTLLSTTW: 0.698 ± 0.022.
SRRSVVRPPCIG displayed a protein stability index of 0.656 ± 0.056.
Next, SRRVSLGLSVDS: 0.662 ± 0.074; SRSETIQTGIGW: 0.706 ± 0.012.
Turning to SRSISCPVLSKI, the protein stability index was 0.707 ± 0.017.
SRSKVVVHNSYW returned a protein stability index of 0.724 ± 0.14.
In turn, SRSSPLYRRGVR yielded a protein stability index of 0.679 ± 0.089.
Next, SRTLYERTRFVL: 0.647 ± 0.018; SRVPTSRARKRS: 0.7001 ± 0.0042.
In the case of SSCLDAHPPSSS, the protein stability index turned out to be 0.736 ± 0.072.
In the case of SSCLRQGVGACG it was 0.702 ± 0.018; in that of SSDFTSRHTRPP, 0.639 ± 0.035; in that of SSDSYANLNWVI, 0.741 ± 0.038.
In the case of SSEECYDTKGEL it was 0.674 ± 0.027; in that of SSENIQLADQLR, 0.702 ± 0.046; in that of SSFLLGCAFPLG, 0.688 ± 0.0075.
Next, SSFLSFSSGCQS: 0.757 ± 0.045.
The sequence SSFNSCQFVLSY gave a protein stability index of 0.563 ± 0.011.
As for SSFSACPTKIII, the protein stability index turned out to be 0.686 ± 0.048.
Regarding SSGCVNILIDLF, the protein stability index was 0.638 ± 0.011.
Next, SSGKRANINKNK: 0.695 ± 0.022.
In turn, SSGVCSGTSALN gave a protein stability index of 0.681 ± 0.033.
As to SSHWGRSRLASG, the protein stability index was determined as 0.674 ± 0.1.
Next, SSIVGRLLSTNT: 0.664 ± 0.071; SSLLLPALSPSV: 0.647 ± 0.077; SSLLSLAFFAPS: 0.7147 ± 0.0056.
Next, SSLPAPSPVPSP: 0.731 ± 0.081; SSLPPPRLFLLP: 0.697 ± 0.085; SSLQGSCPSKSL: 0.7 ± 0.044.
Next, SSLTTCFLSFPP: 0.668 ± 0.066; SSLVRFDSSAPL: 0.665 ± 0.033; SSNLLFCSIFYV: 0.6181 ± 0.0021.
For SSNRKLVRLASS, the protein stability index was 0.69 ± 0.084.
Next, SSNSSFFIWGLV: 0.7119 ± 0.00078.
In the case of SSPIRPFLPPGY it was 0.6709 ± 0.0049.
Next, SSPLWCFRLVFF: 0.583 ± 0.015; SSPNPPRELGPY: 0.607 ± 0.055.
On to SSPPAPHGAHPP, for which the protein stability index turned out to be 0.752 ± 0.0099.
Next, SSPPAPHLAPPP: 0.703 ± 0.053; SSPPPPALPEYQ: 0.699 ± 0.0082.
